The supplement of paper PMC7877785
± gives the uncertainty stated by the source.

Assay: self-splicing fitness, log relative to wild type (ln ratio); higher = more splicing; Tetrahymena group I intron in knt gene, E. coli kanamycin selection, DiMSum; sequences stand for … in CUCUCU…GGAGGGAAAAGUUAUCAGGCAUGCACCUGGUAGCUAGUCUUUAAACCAAUAGAUUGCAUCGGUUUAAAAGGCAAGACCGUCAAAUUGCGGGAAAGGGGUCAACAGCCGUUCAGUACCAAGUCUCAGGGGAAACUUUGAGAUGGCCUUGCAAAGGGUAUGGUAAUAAGCUGACGGACAUGGUCCUAACCACGCAGCCAAGUCCUAAGUCAACAGAUCUUCUGUUGAUAUGGAUGCAGUUCACAGACUAAAUGUCGGUCGGGGAAGAUGUAUUCUUCUCAUAAGAUAUAGUCGGACCUCUCCUUAAUGGGAGCUAGCGGAUGAAGUGAUGCAACACUGGAGCCGCUGGGAACUAAUUUGUAUGCGAAAGUAUAUUGAUUAGUUUUGGAGUACUCGUGGUCG
Outline: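 DiMSum derived fitness as the error-weighted combination of fold changes across replicates, kanamycin versus no kanamycin, normalised to wild type. E. coli BL21(DE3) held the library, which randomised all eight P1ex-region intron nucleotides within the knt kanamycin-resistance gene on pET-22b(+). Six replicate transformations grew overnight at 37°C or 30°C on LB agar with or without 25 μg/mL kanamycin, also containing 100 μg/mL carbenicillin, 50 μM IPTG and 0.2% rhamnose, and pooled colonies were amplicon-sequenced on an Illumina HiSeq 2500.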

CAACAGCAAUAUUACGGCUA
self-splicing fitness (ln) (30 °C): -1.28 ± 0.073
self-splicing fitness (ln) (37 °C): -0.553 ± 0.073

AUCAAGCAAUAUUACGCCUG
self-splicing fitness (ln) (30 °C): -1.61 ± 0.12
self-splicing fitness (ln) (37 °C): -0.797 ± 0.16

AUUUAGCAAUAUUACGGACA
self-splicing fitness (ln) (30 °C): -1.34 ± 0.27
self-splicing fitness (ln) (37 °C): -0.739 ± 0.27

AGUAAGCAAUAUUACGCAUG
self-splicing fitness (ln) (30 °C): -3.12 ± 0.17
self-splicing fitness (ln) (37 °C): -1.95 ± 0.23

UCACAGCAAUAUUACGUGCG
self-splicing fitness (ln) (30 °C): -0.577 ± 0.056
self-splicing fitness (ln) (37 °C): -0.105 ± 0.069

GACUAGCAAUAUUACGAUAU
self-splicing fitness (ln) (30 °C): -0.566 ± 0.075
self-splicing fitness (ln) (37 °C): -0.0805 ± 0.1

GUGUAGCAAUAUUACGCGCG
self-splicing fitness (ln) (30 °C): -2.48 ± 0.36
self-splicing fitness (ln) (37 °C): -2.62 ± 0.38

UGCUAGCAAUAUUACGUCUU
self-splicing fitness (ln) (30 °C): -1.85 ± 0.093
self-splicing fitness (ln) (37 °C): -0.906 ± 0.088

CUCGAGCAAUAUUACGCCUC
self-splicing fitness (ln) (30 °C): -1.8 ± 0.21

AAUUAGCAAUAUUACGGAGC
self-splicing fitness (ln) (30 °C): -2.52 ± 0.3
self-splicing fitness (ln) (37 °C): -2.64 ± 0.33

UUACAGCAAUAUUACGCGAA
self-splicing fitness (ln) (30 °C): -1.02 ± 0.12
self-splicing fitness (ln) (37 °C): -0.94 ± 0.11

CGGAAGCAAUAUUACGGUAU
self-splicing fitness (ln) (30 °C): -4.04 ± 0.16
self-splicing fitness (ln) (37 °C): -1.95 ± 0.098

UAAAAGCAAUAUUACGCGUU
self-splicing fitness (ln) (30 °C): -2.85 ± 0.13
self-splicing fitness (ln) (37 °C): -1.14 ± 0.13

AGUAAGCAAUAUUACGGCGC
self-splicing fitness (ln) (30 °C): -1.02 ± 0.11
self-splicing fitness (ln) (37 °C): -0.433 ± 0.13

AGCCAGCAAUAUUACGGGUG
self-splicing fitness (ln) (30 °C): -2.15 ± 0.075
self-splicing fitness (ln) (37 °C): -0.713 ± 0.085

ACCCAGCAAUAUUACGACUU
self-splicing fitness (ln) (30 °C): 0.148 ± 0.042
self-splicing fitness (ln) (37 °C): 0.908 ± 0.062

GGCUAGCAAUAUUACGGUCC
self-splicing fitness (ln) (30 °C): -4.11 ± 0.33
self-splicing fitness (ln) (37 °C): -2.97 ± 0.28

UGAGAGCAAUAUUACGGAGG
self-splicing fitness (ln) (30 °C): -2.31 ± 0.28
self-splicing fitness (ln) (37 °C): -1.91 ± 0.3

UCGCAGCAAUAUUACGUUCU
self-splicing fitness (ln) (30 °C): -3.58 ± 0.18
self-splicing fitness (ln) (37 °C): -2.31 ± 0.11

AUCCAGCAAUAUUACGCGUA
self-splicing fitness (ln) (30 °C): -0.536 ± 0.089
self-splicing fitness (ln) (37 °C): -0.499 ± 0.097

UUUUAGCAAUAUUACGACAG
self-splicing fitness (ln) (30 °C): -0.158 ± 0.23
self-splicing fitness (ln) (37 °C): 0.172 ± 0.27

AGAGAGCAAUAUUACGACAA
self-splicing fitness (ln) (37 °C): -2.46 ± 0.48

AUGCAGCAAUAUUACGGAAG
self-splicing fitness (ln) (30 °C): -3.07 ± 0.16
self-splicing fitness (ln) (37 °C): -2.01 ± 0.2

CCGGAGCAAUAUUACGACCG
self-splicing fitness (ln) (30 °C): -1.71 ± 0.5

UCGGAGCAAUAUUACGCUAU
self-splicing fitness (ln) (30 °C): -3.09 ± 0.34
self-splicing fitness (ln) (37 °C): -2.48 ± 0.36

CGGCAGCAAUAUUACGUGAA
self-splicing fitness (ln) (30 °C): -2.25 ± 0.11
self-splicing fitness (ln) (37 °C): -1.65 ± 0.15

GGUGAGCAAUAUUACGGGAA
self-splicing fitness (ln) (30 °C): -1.89 ± 0.3
self-splicing fitness (ln) (37 °C): -2.5 ± 0.48

CGAUAGCAAUAUUACGACGG
self-splicing fitness (ln) (30 °C): 0.185 ± 0.098
self-splicing fitness (ln) (37 °C): 0.424 ± 0.14

CUUAAGCAAUAUUACGUCUC
self-splicing fitness (ln) (30 °C): -3.75 ± 0.33
self-splicing fitness (ln) (37 °C): -2.11 ± 0.27

CUCAAGCAAUAUUACGACCG
self-splicing fitness (ln) (30 °C): -1.26 ± 0.12
self-splicing fitness (ln) (37 °C): -0.638 ± 0.16

AGGAAGCAAUAUUACGAGUC
self-splicing fitness (ln) (30 °C): -2.85 ± 0.35
self-splicing fitness (ln) (37 °C): -1.61 ± 0.27

AAUGAGCAAUAUUACGCAGG
self-splicing fitness (ln) (30 °C): -2.85 ± 0.14
self-splicing fitness (ln) (37 °C): -3.18 ± 0.29

ACAGAGCAAUAUUACGCCUA
self-splicing fitness (ln) (30 °C): -1.68 ± 0.23
self-splicing fitness (ln) (37 °C): -1.93 ± 0.22

UUGUAGCAAUAUUACGAACA
self-splicing fitness (ln) (30 °C): -0.432 ± 0.16
self-splicing fitness (ln) (37 °C): -0.256 ± 0.15

GAGUAGCAAUAUUACGGAAG
self-splicing fitness (ln) (30 °C): -3.65 ± 0.23
self-splicing fitness (ln) (37 °C): -2.71 ± 0.26

UAUAAGCAAUAUUACGGAAU
self-splicing fitness (ln) (30 °C): -2.37 ± 0.22
self-splicing fitness (ln) (37 °C): -0.6 ± 0.16

UAGAAGCAAUAUUACGGCCU
self-splicing fitness (ln) (30 °C): -0.838 ± 0.12
self-splicing fitness (ln) (37 °C): -1.15 ± 0.15

GCAAAGCAAUAUUACGUGCC
self-splicing fitness (ln) (30 °C): -4.02 ± 0.25
self-splicing fitness (ln) (37 °C): -1.63 ± 0.2
